Source: patent US20210238260A1

target: plasma purified human AT-III (antithrombin III) in complex with unfractionated heparin (human) (UniProt P01008); assay: residual FIXa activity on Mesyl-D-CHG-Gly-Arg-AMC after timed incubation with AT-III/UFH (0-500 nM AT-III, 1 uM UFH); kapp from K0.5

Substance	kapp (apparent second-order rate constant for inhibition) [M⁻¹ s⁻¹]
FIXa-Y155F/R318Y/R338E/N346D/R403E/E410N (from UniProt P00740 47-191; P00740 227-461) (enzyme)	1600
FIXa-T343R/N346D (from UniProt P00740 47-191; P00740 227-461) (enzyme)	1.3e+06
FIXa-R318Y/R338E/N346Y/R403E/E410N (from UniProt P00740 47-191; P00740 227-461) (enzyme)	2800
FIXa-K228N/K247N/N249S/R318Y/R338E/R403E/E410N (from UniProt P00740 47-191; P00740 227-461) (enzyme)	1100
FIXa-R318Y/R338E/R403E/E410N/T412A (from UniProt P00740 47-191; P00740 227-461) (enzyme)	3800
FIXa-D104N/K106S/K247N/N249S/N260S (from UniProt P00740 47-191; P00740 227-461) (enzyme)	1.7e+06
FIXa-Y155F/K228N/K247N/N249S/R318Y/R338E/R403E/E410N (from UniProt P00740 47-191; P00740 227-461) (enzyme)	1100
FIXa-Y155F/N260S/R318Y/R338E/R403E/E410N (from UniProt P00740 47-191; P00740 227-461) (enzyme)	2100
FIXa-K247N/N249S/R318Y/R403E/E410N (from UniProt P00740 47-191; P00740 227-461) (enzyme)	2700
FIXa-Y155F/K247N/N249S/R318Y/R338E/R403E (from UniProt P00740 47-191; P00740 227-461) (enzyme)	810
FIXa-D104N/K106S/N260S/R318Y/R338E/R403E/E410N (from UniProt P00740 47-191; P00740 227-461) (enzyme)	2100
FIXa-K247N/N249S/N260S/R318Y/R338E/R403E/E410N (from UniProt P00740 47-191; P00740 227-461) (enzyme)	1300
FIXa-R318Y/R338E/T343R/N346D/R403E/E410N (from UniProt P00740 47-191; P00740 227-461) (enzyme)	5100
FIXa-D104N/K106S/R318Y/R338E/T343R/R403E/E410N (from UniProt P00740 47-191; P00740 227-461) (enzyme)	9100
FIXa-R318Y/R338E/R403E/T412A (from UniProt P00740 47-191; P00740 227-461) (enzyme)	1600
FIXa-R318Y/R338E/Y345A/R403E/E410N (from UniProt P00740 47-191; P00740 227-461) (enzyme)	7900
FIXa-R318Y/R338E/E410S (from UniProt P00740 47-191; P00740 227-461) (enzyme)	720000

More lines, now with the values ahead:

kapp (apparent second-order rate constant for inhibition) [M⁻¹ s⁻¹]	Substance
310	FIXa-K247N/N249S/R318Y/R338E/R403E (from UniProt P00740 47-191; P00740 227-461) (enzyme)
8600	FIXa-Y155F/R318Y/R338E/T343R/R403E/E410N (from UniProt P00740 47-191; P00740 227-461) (enzyme)
4.2e+06	FIXa-T343R/N346Y (from UniProt P00740 47-191; P00740 227-461) (enzyme)
42000	FIXa-Y155F/K247N/N249S/R338E/R403E/E410N (from UniProt P00740 47-191; P00740 227-461) (enzyme)
4400	FIXa-N260S/R318Y/R338E/R403E/E410N (from UniProt P00740 47-191; P00740 227-461) (enzyme)
11000	FIXa-R318Y/R338E/T343R/N346Y/R403E/E410N (from UniProt P00740 47-191; P00740 227-461) (enzyme)

target: antithrombin III (AT-III), plasma purified human, in complex with unfractionated heparin (UFH) (human) (UniProt P01008); assay: inhibition of FIXa by AT-III/UFH, pseudo-first-order, residual activity on Mesyl-D-CHG-Gly-Arg-AMC

Substance	kapp (second-order rate constant for inhibition) [M⁻¹ s⁻¹]
FIXa-Y155F/K228N/I251S/R318Y/R338E/R403E/E410N (from UniProt P00740 47-191; P00740 227-461) (enzyme)	1300
FIXa-Y155F/K247N/N249S/R338E/R403E (from UniProt P00740 47-191; P00740 227-461) (enzyme)	13000
FIXa-Y155F/K228N/K247N/N249S/R318Y/R338E/T343R/R403E/E410N (from UniProt P00740 47-191; P00740 227-461) (enzyme)	2200
FIXa-Y155F/N260S/R318Y/R338E/T343R/R403E/E410N (from UniProt P00740 47-191; P00740 227-461) (enzyme)	2600
FIXa-Y155F/I251S/R338E/T343R/R403E (from UniProt P00740 47-191; P00740 227-461) (enzyme)	160000
FIXa-R318Y/T343R/R403E/E410N (from UniProt P00740 47-191; P00740 227-461) (enzyme)	93000
FIXa-Y155F/K247N/N249S/R318Y/R338E/T343R/E410N (from UniProt P00740 47-191; P00740 227-461) (enzyme)	220000
FIXa-K228N/I251S/R318Y/R338E/R403E/E410N (from UniProt P00740 47-191; P00740 227-461) (enzyme)	900
FIXa-Y155F/K247N/N249S/R338E/T343R (from UniProt P00740 47-191; P00740 227-461) (enzyme)	1.2e+07

Next, values leading:

kapp (second-order rate constant for inhibition) [M⁻¹ s⁻¹]	Substance
140000	FIXa-Y155F/K247N/N249S/T343R/R403E (from UniProt P00740 47-191; P00740 227-461) (enzyme)
40000	FIXa-Y155F/N260S/R338E/T343R/R403E (from UniProt P00740 47-191; P00740 227-461) (enzyme)
190000	FIXa-R338E/T343R/R403E (from UniProt P00740 47-191; P00740 227-461) (enzyme)
280000	FIXa-Y155F/R338E/T343R/R403E/E410N (from UniProt P00740 47-191; P00740 227-461) (enzyme)
130000	FIXa-Y155F/K247N/N249S/R318Y/E410N (from UniProt P00740 47-191; P00740 227-461) (enzyme)
86000	FIXa-K247N/N249S/R338E/T343R/R403E/E410N (from UniProt P00740 47-191; P00740 227-461) (enzyme)
5800	FIXa-R318Y/R338E/T343R/R403E (from UniProt P00740 47-191; P00740 227-461) (enzyme)
93000	FIXa-Y155F/R338E/T343R/R403E (from UniProt P00740 47-191; P00740 227-461) (enzyme)
1700	FIXa-K247N/N249S/R318Y/R338E/T343R/R403E (from UniProt P00740 47-191; P00740 227-461) (enzyme)
